Laboratory results: PMC4643876 (2015)
Where two headings read alike, the source gives them in different places. Ends that are not written are not given here. * marks the point of attachment. Biotin = O=C1N[C@H]2[C@H](CS[C@H]2CCCCC(=O)*)N1; Octanoyl = CCCCCCCC(=O)*; GABA = NCCCC(=O)O

What was measured:
[1] = molecular target: T1, GFP-tagged Plasmepsin V (PmV-GFP), P. falciparum clone DC6 (Plasmodium falciparum)
[2] = molecular target: T1, GFP-tagged Plasmepsin V (PmV-GFP), P. …; assay: 3 uM HRPII-PExEl substrate
[3] = molecular target: T1, GFP-tagged Plasmepsin V (PmV-GFP), P. …; remark: listed apart in the source
[4] = molecular target: T1, GFP-tagged Plasmepsin V (PmV-GFP), P. …; assay: 3 uM HRPII-PExEl substrate; remark: listed apart in the source
[5] = molecular target: T1, GFP-tagged Plasmepsin V (PmV-GFP), P. …; assay: 3 uM HRPII-PExEl substrate; remark: listed apart in the source

T1 sequence (Q8I6Z5 whole entry): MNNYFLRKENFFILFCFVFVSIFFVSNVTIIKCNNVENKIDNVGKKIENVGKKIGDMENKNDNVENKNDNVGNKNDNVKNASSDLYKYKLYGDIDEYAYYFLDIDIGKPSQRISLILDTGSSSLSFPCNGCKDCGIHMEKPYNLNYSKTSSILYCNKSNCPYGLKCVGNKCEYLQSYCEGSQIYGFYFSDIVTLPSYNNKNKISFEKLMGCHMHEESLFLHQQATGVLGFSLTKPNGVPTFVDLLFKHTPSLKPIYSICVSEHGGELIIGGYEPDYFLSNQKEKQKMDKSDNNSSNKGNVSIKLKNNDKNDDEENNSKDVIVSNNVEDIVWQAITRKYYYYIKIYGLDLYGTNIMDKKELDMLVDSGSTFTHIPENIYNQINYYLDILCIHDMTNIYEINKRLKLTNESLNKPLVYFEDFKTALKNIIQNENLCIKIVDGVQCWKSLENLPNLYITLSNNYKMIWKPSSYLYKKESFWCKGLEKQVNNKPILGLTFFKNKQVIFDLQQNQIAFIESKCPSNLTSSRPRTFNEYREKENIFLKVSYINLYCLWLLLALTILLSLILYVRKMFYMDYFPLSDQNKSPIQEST

B1: Compound 37a (octanoyl group at the N-terminus of Compound 7a) (peptide)
peptide: Octanoyl-RLLYEA
modifications: also: hydroxyethylamino (HEA) isostere in place of peptide bond Leu3-Tyr4, carbinol S
Q: B1 was tested. Which Ki [1] did it give?
A: Its Ki is 0.01 nM.

Q: For RLLYEA (not fully specified; also: HEA isostere replaces the Leu3-Tyr4 peptide bond) [Compound 7a], which IC50 [2] is on record?
A: The IC50 was 1.38 nM.

Q: And the Ki [3]?
A: Its Ki is 0.74 nM.

Q: With RLLAEA (also: hydroxyethylamino (HEA) isostere in place of peptide bond Leu3-Ala4) [Compound 1 (LG20), RL[L~A]EA] as the binder, how does the IC50 [4] read?
A: Its IC50 is 0.37 nM.

Q: What does the source list for {Biotin-GABA-GABA}-RLLAEA (also: hydroxyethylamino (HEA) isostere in place of peptide bond Leu3-Ala4) [Compound 36, a biotinylated version of Compound 1]?
A: Ki [1]: 22.5 nM; IC50 [5]: 41.9 nM
